Reference: paper PMC11597096, “Unite and Conquer: Association of Two G-Quadruplex Aptamers Provides Antiproliferative and Antimigration Activity for Cells from High-Grade Glioma Patients”

Target: PARP1 (Homo sapiens, UniProt P09874 1-1014)
Assay: BLI; no competitor; kon 6.6 ± 0.34 (10^5 M-1 s-1), koff 1.28 ± 0.04 (printed as 10^2; 10^-2 s-1 implied); BLI: 1x PBS pH 7.4, 25 °C, SAX biosensors, biotinylated oligo loaded at 2 uM, PARP1 2.5-162 nM. Pull-down: 25 mM Tris-HCl pH 7.4, 150 mM NaCl, 1 mM EDTA, 1% NP-40, 5% glycerol, 0.1 mM DTT, room temperature
Details: protein: recombinant; label: 5'-biotin; bi-modular G4 with parallel chain stacking

PARP1, sequence (P09874 whole entry): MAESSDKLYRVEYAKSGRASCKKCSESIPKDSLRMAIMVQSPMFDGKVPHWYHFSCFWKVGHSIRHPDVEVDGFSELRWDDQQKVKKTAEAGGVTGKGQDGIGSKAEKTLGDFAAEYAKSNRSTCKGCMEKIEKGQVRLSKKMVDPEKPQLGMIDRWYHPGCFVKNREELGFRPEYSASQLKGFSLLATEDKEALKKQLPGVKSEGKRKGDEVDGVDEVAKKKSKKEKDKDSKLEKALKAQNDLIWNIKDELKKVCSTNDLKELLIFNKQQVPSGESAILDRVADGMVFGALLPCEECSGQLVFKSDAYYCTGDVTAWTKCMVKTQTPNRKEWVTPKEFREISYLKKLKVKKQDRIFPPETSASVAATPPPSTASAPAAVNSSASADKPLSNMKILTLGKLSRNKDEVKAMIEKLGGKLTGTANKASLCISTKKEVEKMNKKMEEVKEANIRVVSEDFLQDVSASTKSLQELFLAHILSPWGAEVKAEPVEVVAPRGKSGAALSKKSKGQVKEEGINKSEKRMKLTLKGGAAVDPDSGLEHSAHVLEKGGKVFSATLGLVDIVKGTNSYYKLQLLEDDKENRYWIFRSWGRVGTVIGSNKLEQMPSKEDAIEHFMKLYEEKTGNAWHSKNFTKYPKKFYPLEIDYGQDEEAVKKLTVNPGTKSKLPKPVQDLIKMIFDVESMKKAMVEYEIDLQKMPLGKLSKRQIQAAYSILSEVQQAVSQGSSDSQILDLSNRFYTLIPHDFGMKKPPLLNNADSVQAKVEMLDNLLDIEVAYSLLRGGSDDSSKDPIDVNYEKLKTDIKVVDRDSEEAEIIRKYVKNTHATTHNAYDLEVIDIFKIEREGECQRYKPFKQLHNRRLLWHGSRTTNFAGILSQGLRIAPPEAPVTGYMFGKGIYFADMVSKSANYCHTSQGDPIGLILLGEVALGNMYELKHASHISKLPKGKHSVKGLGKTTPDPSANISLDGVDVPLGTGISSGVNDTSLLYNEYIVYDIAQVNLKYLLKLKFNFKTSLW

## GGGTGGGTGGGTGGGTTTGGGTGGGTGGGTGGG (structured_DNA) [bi-(AID-1-T)]
  Kd: 19.4 ± 0.7 nM
